Experimental data reported in PMC10397247.

Key:
4H2742-AA = biological target: T1, 4H2742-AA; assay: two-hybrid library CCmax; settings: mean of both orientations;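 note: natural log of median RNA to DNA barcode read ratio; higher means stronger binding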
T1 chain: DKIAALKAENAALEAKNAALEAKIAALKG

4H2991-AA = biological target: T2, 4H2991-AA; assay: two-hybrid library CCmax; settings: mean of both orientations;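 note: natural log of median RNA to DNA barcode read ratio; higher means stronger binding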
T2 chain: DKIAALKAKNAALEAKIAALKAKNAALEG

4H189-AA = biological target: T3, 4H189-AA; assay: two-hybrid library CCmax; settings: mean of both orientations;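 note: natural log of median RNA to DNA barcode read ratio; higher means stronger binding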
T3 chain: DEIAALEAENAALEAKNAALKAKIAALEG

4H2248-AA = biological target: T4, 4H2248-AA; assay: two-hybrid library CCmax; settings: mean of both orientations;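 note: natural log of median RNA to DNA barcode read ratio; higher means stronger binding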
T4 chain: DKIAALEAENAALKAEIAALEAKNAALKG

4H3121-AA = biological target: T5, 4H3121-AA; assay: two-hybrid library CCmax; settings: mean of both orientations;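 note: natural log of median RNA to DNA barcode read ratio; higher means stronger binding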
T5 chain: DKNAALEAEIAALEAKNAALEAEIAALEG

4H3666-AA = biological target: T6, 4H3666-AA; assay: two-hybrid library CCmax; settings: mean of both orientations;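 note: natural log of median RNA to DNA barcode read ratio; higher means stronger binding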
T6 chain: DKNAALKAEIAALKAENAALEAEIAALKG

4H3446-AA = biological target: T7, 4H3446-AA; assay: two-hybrid library CCmax; settings: mean of both orientations
T7 chain: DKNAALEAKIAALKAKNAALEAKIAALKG

4H2948-AA = biological target: T8, 4H2948-AA; assay: two-hybrid library CCmax; settings: mean of both orientations
T8 chain: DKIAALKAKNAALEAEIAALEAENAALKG

4H3939-AA = biological target: T9, 4H3939-AA; assay: two-hybrid library CCmax; settings: mean of both orientations
T9 chain: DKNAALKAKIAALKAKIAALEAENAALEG

4H391-AA = biological target: T10, 4H391-AA; assay: two-hybrid library CCmax; settings: mean of both orientations
T10 chain: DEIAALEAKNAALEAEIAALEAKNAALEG

4H3709-AA = biological target: T11, 4H3709-AA; assay: two-hybrid library CCmax; settings: mean of both orientations
T11 chain: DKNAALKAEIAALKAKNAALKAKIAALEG

4H428-AA = biological target: T12, 4H428-AA; assay: two-hybrid library CCmax; settings: mean of both orientations
T12 chain: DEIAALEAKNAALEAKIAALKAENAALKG

4H3628-AA = biological target: T13, 4H3628-AA; assay: two-hybrid library CCmax; settings: mean of both orientations
T13 chain: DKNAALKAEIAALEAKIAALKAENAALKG

4H478-AA = biological target: T14, 4H478-AA; assay: two-hybrid library CCmax; settings: mean of both orientations
T14 chain: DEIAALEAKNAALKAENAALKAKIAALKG

4H1854-AA = biological target: T15, 4H1854-AA; assay: two-hybrid library CCmax
T15 chain: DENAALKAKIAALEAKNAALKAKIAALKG

4H3102-AA = biological target: T16, 4H3102-AA; assay: two-hybrid library CCmax; settings: mean of both orientations
T16 chain: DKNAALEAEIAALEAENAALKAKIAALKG

4H3920-AA = biological target: T17, 4H3920-AA; assay: two-hybrid library CCmax; settings: mean of both orientations
T17 chain: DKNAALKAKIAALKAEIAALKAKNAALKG

4H2283-AA = biological target: T18, 4H2283-AA; assay: two-hybrid library CCmax; settings: mean of both orientations
T18 chain: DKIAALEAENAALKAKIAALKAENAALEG

4H497-AA = biological target: T19, 4H497-AA; assay: two-hybrid library CCmax; settings: mean of both orientations
T19 chain: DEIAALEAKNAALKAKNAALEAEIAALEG

4H3066-AA = biological target: T20, 4H3066-AA; assay: two-hybrid library CCmax; settings: mean of both orientations
T20 chain: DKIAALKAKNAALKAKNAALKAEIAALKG

4H3591-AA = biological target: T21, 4H3591-AA; assay: two-hybrid library CCmax; settings: mean of both orientations
T21 chain: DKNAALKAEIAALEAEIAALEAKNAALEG

4H2713-AA = biological target: T22, 4H2713-AA; assay: two-hybrid library CCmax; settings: mean of both orientations
T22 chain: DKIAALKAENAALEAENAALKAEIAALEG

4H675-AA = biological target: T23, 4H675-AA; assay: two-hybrid library CCmax; settings: mean of both orientations
T23 chain: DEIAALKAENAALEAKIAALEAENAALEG

4H656-AA = biological target: T24, 4H656-AA; assay: two-hybrid library CCmax; settings: mean of both orientations
T24 chain: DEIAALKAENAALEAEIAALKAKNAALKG

4H3029-AA = biological target: T25, 4H3029-AA; assay: two-hybrid library CCmax; settings: mean of both orientations
T25 chain: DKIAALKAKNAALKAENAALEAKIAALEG

4H3417-AA = biological target: T26, 4H3417-AA; assay: two-hybrid library CCmax; settings: mean of both orientations
T26 chain: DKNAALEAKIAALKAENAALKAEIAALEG

4H971-AA = biological target: T27, 4H971-AA; assay: two-hybrid library CCmax; settings: mean of both orientations
T27 chain: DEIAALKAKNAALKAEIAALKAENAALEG

4H683-bA = biological target: T28, 4H683-bA; assay: two-hybrid library CCNG1
T28 chain: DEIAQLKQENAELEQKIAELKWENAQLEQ

4H3010-bA = biological target: T29, 4H3010-bA; assay: two-hybrid library CCNG1
T29 chain: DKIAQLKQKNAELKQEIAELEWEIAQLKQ

4H953-bA = biological target: T30, 4H953-bA; assay: two-hybrid library CCNG1
T30 chain: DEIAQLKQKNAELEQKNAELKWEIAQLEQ

4H918-bA = biological target: T31, 4H918-bA; assay: two-hybrid library CCNG1
T31 chain: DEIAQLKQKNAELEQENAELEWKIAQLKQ

4H3926-bA = biological target: T32, 4H3926-bA; assay: two-hybrid library CCNG1
T32 chain: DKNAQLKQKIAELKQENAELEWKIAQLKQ

4H457-bA = biological target: T33, 4H457-bA; assay: two-hybrid library CCNG1
T33 chain: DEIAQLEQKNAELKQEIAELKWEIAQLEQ

4H968-bA = biological target: T34, 4H968-bA; assay: two-hybrid library CCNG1
T34 chain: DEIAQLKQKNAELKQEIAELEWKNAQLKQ

4H2702-bA = biological target: T35, 4H2702-bA; assay: two-hybrid library CCNG1
T35 chain: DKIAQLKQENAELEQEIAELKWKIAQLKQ

4H4073-bA = biological target: T36, 4H4073-bA; assay: two-hybrid library CCNG1
T36 chain: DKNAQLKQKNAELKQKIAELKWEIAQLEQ

4H3112-bA = biological target: T37, 4H3112-bA; assay: two-hybrid library CCNG1
T37 chain: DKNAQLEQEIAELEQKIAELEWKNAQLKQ

4H855-bA = biological target: T38, 4H855-bA; assay: two-hybrid library CCNG1
T38 chain: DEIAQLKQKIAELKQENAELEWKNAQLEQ

4H2673-bA = biological target: T39, 4H2673-bA; assay: two-hybrid library CCNG1
T39 chain: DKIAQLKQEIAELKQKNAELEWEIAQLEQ

4H797-bA = biological target: T40, 4H797-bA; assay: two-hybrid library CCNG1
T40 chain: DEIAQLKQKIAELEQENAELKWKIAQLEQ

4H754-bA = biological target: T41, 4H754-bA; assay: two-hybrid library CCNG1
T41 chain: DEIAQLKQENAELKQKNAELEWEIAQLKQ

4H780-bA = biological target: T42, 4H780-bA; assay: two-hybrid library CCNG1
T42 chain: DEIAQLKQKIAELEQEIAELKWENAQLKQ

4H346-bA = biological target: T43, 4H346-bA; assay: two-hybrid library CCNG1
T43 chain: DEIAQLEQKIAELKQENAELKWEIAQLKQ

4H575-bA = biological target: T44, 4H575-bA; assay: two-hybrid library CCNG1
T44 chain: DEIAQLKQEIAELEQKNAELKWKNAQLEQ

4H3427-bA = biological target: T45, 4H3427-bA; assay: two-hybrid library CCNG1
T45 chain: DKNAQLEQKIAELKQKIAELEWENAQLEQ

O5 = biological target: T46, O5; assay: two-hybrid library CC0; settings: mean of both orientations
T46 chain: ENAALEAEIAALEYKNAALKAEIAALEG

O8 = biological target: T47, O8; assay: two-hybrid library CC0; settings: mean of both orientations
T47 chain: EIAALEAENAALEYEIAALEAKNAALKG

O6 = biological target: T48, O6; assay: two-hybrid library CC0; settings: mean of both orientations
T48 chain: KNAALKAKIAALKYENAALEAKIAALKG

O3 = biological target: T49, O3; assay: two-hybrid library CC0; settings: mean of both orientations
T49 chain: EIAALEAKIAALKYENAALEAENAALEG

O7 = biological target: T50, O7; assay: two-hybrid library CC0; settings: mean of both orientations
T50 chain: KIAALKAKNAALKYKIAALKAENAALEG

O4 = biological target: T51, O4; assay: two-hybrid library CC0; settings: mean of both orientations
T51 chain: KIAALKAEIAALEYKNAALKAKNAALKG

O9 = biological target: T52, O9; assay: two-hybrid library CC0; settings: mean of both orientations
T52 chain: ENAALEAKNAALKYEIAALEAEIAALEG

O9-bA = biological target: T53, O9-bA; assay: two-hybrid library CCNG1
T53 chain: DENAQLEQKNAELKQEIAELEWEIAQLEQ

O7-bA = biological target: T54, O7-bA; assay: two-hybrid library CCNG1
T54 chain: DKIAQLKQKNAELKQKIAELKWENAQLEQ

O6-bA = biological target: T55, O6-bA; assay: two-hybrid library CCNG1
T55 chain: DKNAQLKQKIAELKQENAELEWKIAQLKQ

O5-bA = biological target: T56, O5-bA; assay: two-hybrid library CCNG1
T56 chain: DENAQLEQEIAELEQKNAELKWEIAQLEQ

O4-bA = biological target: T57, O4-bA; assay: two-hybrid library CCNG1
T57 chain: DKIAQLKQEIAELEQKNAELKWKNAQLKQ

O3-bA = biological target: T58, O3-bA; assay: two-hybrid library CCNG1
T58 chain: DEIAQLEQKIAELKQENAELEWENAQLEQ

O2-bA = biological target: T59, O2-bA; assay: two-hybrid library CCNG1
T59 chain: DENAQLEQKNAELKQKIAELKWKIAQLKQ

O8-bA = biological target: T60, O8-bA; assay: two-hybrid library CCNG1
T60 chain: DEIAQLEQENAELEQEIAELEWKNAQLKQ

## DENAALKAKIAALEAKNAALKAKIAALKG [4H1854-AA]
4H2742-AA
  interaction score: -1.53
4H2991-AA
  interaction score: -1.61
4H189-AA
  interaction score: -1.76
4H2248-AA
  interaction score: 1.14
4H3121-AA
  interaction score: 1.28
4H3666-AA
  interaction score: 1.68
4H3446-AA
  interaction score: -1
4H2948-AA
  interaction score: -0.756
4H3939-AA
  interaction score: -1.28
4H391-AA
  interaction score: 0.189
4H3709-AA
  interaction score: -0.898
4H428-AA
  interaction score: -0.746
4H3628-AA
  interaction score: -1.22
4H478-AA
  interaction score: -1.16
4H1854-AA
  interaction score: 0.401
4H3102-AA
  interaction score: 0.389
4H3920-AA
  interaction score: -1.51
4H2283-AA
  interaction score: -0.597
4H497-AA
  interaction score: -1.88
4H3066-AA
  interaction score: -1.5
4H3591-AA
  interaction score: -0.937
4H2713-AA
  interaction score: -0.843
4H675-AA
  interaction score: 0.675
4H656-AA
  interaction score: 0.553
4H3029-AA
  interaction score: -0.674
4H3417-AA
  interaction score: 1.7
4H971-AA
  interaction score: -2.3

## DKIAQLKQEIAELKQKNAELEWEIAQLEQ [4H2673-bA]
4H683-bA
  interaction score: -0.575
4H3010-bA
  interaction score: 2
4H953-bA
  interaction score: -0.927
4H918-bA
  interaction score: -0.235
4H3926-bA
  interaction score: 1.58
4H457-bA
  interaction score: -1.45
4H968-bA
  interaction score: -0.811
4H2702-bA
  interaction score: -1.01
4H4073-bA
  interaction score: 0.202
4H3112-bA
  interaction score: -0.873
4H855-bA
  interaction score: 0.000366
4H2673-bA
  interaction score: 0.275
4H797-bA
  interaction score: -2.16
4H754-bA
  interaction score: -0.889
4H780-bA
  interaction score: -1.03
4H346-bA
  interaction score: -0.931
4H575-bA
  interaction score: 0.276
4H3427-bA
  interaction score: -1.17

## EIAALEAKIAALKYENAALEAENAALEG [O3]
O5
  interaction score: -2.78
O8
  interaction score: -2.58
O6
  interaction score: -2.66
O3
  interaction score: -2.75
O7
  interaction score: -2.77
O4
  interaction score: 1.48
O9
  interaction score: -2.71

## DENAQLEQKNAELKQKIAELKWKIAQLKQ [O2-bA]
O9-bA
  interaction score: 1
O7-bA
  interaction score: -0.0715
O6-bA
  interaction score: -0.5
O5-bA
  interaction score: 0.59
O4-bA
  interaction score: -0.35
O3-bA
  interaction score: -0.0372
O2-bA
  interaction score: -0.405
O8-bA
  interaction score: 0.682
